# Measurements reported in a protein production outcome set (Wang et al. 2014).
# Assay: label from the status in PepcDB records
row,Sequence,protein production
1,MDPLALALLPGIGPKRLLEVLKAEDPLGFLRERFPEAWRHLPEAEAQAERERGRAEALGVRLLGLWEEGFPEGLRALPQPPTHLYLKGELPPEREAVALVGTRRASPWALAFARRLARELAEAGLWVVSGLARGIDREAHLGALEAGGRTLGVLGSALDRVYPPENRPLAQRMDLLSEFPFGTGPKPEFFPRRNRLIAGLCRAVVVVEAPLDSGALITARHALELGKEVLAVPGRPTDERSLGANRLIQDGAYPVLSAEDVLSYLGMSARPKPLPGLSPEEEALYALLQEKKEALPEALAMALGIPPERVLSLLTLLELKGLARALPGGRYGPG,failed
2,MDPLVSFFDGMAQASWLRPVHDRLKKGTGSWANRAVLDVGCGTGRLLARGVHEAAHLAGVDLSKQMVLATEERLHEHKQCGRLTVVQGDAYDLPFADESFDVCLSTCVMFLLPEPERGMKEMIRVLNGAGVIGMLNPTNKMNHAAAKAYCKKSGITGFEEKTLLQWSNVSTRRHRYTAEQLTHFFKQHGAWVVTHELVLDGLAVVTVASWNKLEHHHHHH,failed
3,MDPSTLMILAIVAVAIIVLAVFFTFVPVMLWISALAAGVKISIFTLVGMRLRRVIPNRVVNPLIKAHKAGLNVGTNQLESHYLAGGNVDRVVNALIAAQRANIELTFERCAAIDLAGRDVLEAVQMSVNPKVIETPFIAGVAMDGIEVKAKARITVRANIERLVGGAGEETIVARVGEGIVSTIGSSDNHKKVLENPDMISQTVLGKGLDSGTAFEILSIDIADVDIGKNIGAILQTDQAEADKNIAQAKAEERRAMAVAQEQEMRARVEEMRAKVVEAEAEVPLAMAEALREGNIGVMDYMNIKNIDADTEMRDSFGKLT,failed
4,MDPYFELRLSELKSIPVVTWLQFSIDNAREPGILVQSGQIWALLPPELTEKTRCFAIELGNECMRLKDYDNDDGKRVWLSDDELTRFIEQAETPHQRLAFLLAGRVGLRRSEIIEVCPQDLVDGPTGDHIRVWESYAKRDKYREPPVPQEVVTIAETLAYQQDDDEPLLDVAGSTVYRWVRRAADELEEETGDRGWQYLDVHDLRRTWGTYLLEQGVIPSVVMSFGGWEDWDTFRKHYLGEFSPEAIRRERGKVDFLEGGDESAEVVHPGTMPPASHHTAD,failed
5,MDQFPESVTENFEYDDLAEACYIGDIVVFGTVFLSIFYSVIFAIGLVGNLLVVFALTNSKKPKSVTDIYLLNLALSDLLFVATLPFWTHYLINEKGLHNAMCKFTTAFFFIGFFGSIFFITVISIDRYLAIVLAANSMNNRTVQHGVTISLGVWAAAILVAAPQFMFTKQKENECLGDYPEVLQEIWPVLRNVETNFLGFLLPLLIMSYCYFRIIQTLFSCKNHKKAKAIKLILLVVIVFFLFWTPYNVMIFLETLKLYDFFPSCDMRKDLRLALSVTETVAFSHCCLNPLIYAFAGEKFRRYLYHLYGKCLAVLCGRSVHVDFSSSESQRSRHGSVLSSNFTYHTSDGDALLLL,failed
6,MDQIFNKVGSYWLGQKANKQFDSVGNDLNSVSTSIEGGTKWLVNKIKGKMQKPLPELLKEYDLPIGIFPGDATNYEFDEETKKLTVLIPSICEVGYKDSSVLKFTTTVTGHLEKGKLTDVEGIKTKVMIWVKVTSISTDASKVYFTAGMKKSRSRDAYEVQRNGLRVDKF,not failed
7,MDQKSTTCLEALAKLSQQREHQTTPATLCSSEHFFANETIYSDATFLSTTEEAFISSPSSSTQGPKPGLKRVSTGPMTRILEGCQNDKPNSPELERVEEAEDNYSGTSSEEAFSQGIPYPHQVGGHGALSSFERGRVLKPAAKKEIDFYNFIYSDNLPSELEWLRTVTPKYFGQRKTQAKAKRILENQVTPFSQTSSVPVNTVLHIDRKDSERNIWKDQVGELVMDTNPWARACLLKELQKEDEVKSFIILEDLTCHLKKPCVLDCKMGTRHYDDDATEEKKKAHIEKATKTTSSSTGIRFTGMQVYKLPSHTFLFHDKYYGRQLKSHELKNELFEFFHNGVLLRVDIIEQFLSKLQWLYQHLENQHYFNFYSSSLLFVYEGDEMATCPISDVRMIDFAHTQRCVEEQQNDGYLFGLSNLIHLMKSLLEDERNEMR,failed
8,MDQLWANRAASAEAAITERHLKKLWGLPGTQLGVVAWPPARKYTLFGTWHYWWQAHLLDCLVDAQVRDPQPERTTRIERQLRAHRLRNNLSWVNDYYDDMAWLALAIERAGRLAGVEKPTALRKLCDQFVTAWVPEDGGGIPWRKQDQFFNAPANGPAGIFLARYDDRLRRAQQMADWIDETLIDPDTHLVFDGIKAGSLVRAQYTYCQGVVLGLEVELAVRTQDPRHAPRVRRLVAAVDKEMTTDGVIKGAGGGDGGLFNGILARYLALVATTLPGETPEDIAARDTARTIVLKSARSAWDHRQTVDGLPLFSAFWDRNAEIPTAGGKEAEFVEGAVNASSVPERDLSVQLAGWMLMEAAHSVDSVDAEDAAGDQNGAGDGEVGHDENEDEELEHHHHHH,not failed
9,MDQQYDFGRPMGHERRSKEHDVTMRNRKTLDITGVKQVESFDNEEFLLETEMGFLSIRGRNLHMKNLNVEEGLVSIEGKIFDMVYLEQGQGEKSKGFFGKLFKLEHHHHHH,failed
10,MDRFLVKGAQGGLLRKQEEQEPTGEEPAVLGGDKESTRKRPRGEAPGNGGHSAGPSWRHIRAEGLDCSYTVLFGKAEADEIFQELEKEVEYFTGALARVQVFGKWHSVPRKQATYGDAGLTYTFSGLTLSPKPWIPVLERIRDHVSGVTGQTFNFVLINRYKDGCDHIGEHRDDERELAPGSPIASVSFGACRDFVFRHKDSRGKSPSRRVAVVRLPLAHGSLLMMNHPTNTHWYHSLPVRKKVLAPRVNLTFRKILLTKK,failed
11,MDRKKVMVRHSIASLVALGIFGGSRFLYNVIIGRKYGVETLGYTNSIISQAFFVAGFLAFFSVGLGKFTSEFLGKGEYNRIKKLTGISFTFPFLGLILIPLNFHVALLSVLRAIQLTFRSFIYGLHKGELYAYSVILAFPFFLLGFLDGPLLPYYLLLGTIGIFSLSYLVSRSLIGLPGREDTKALIGFSTWAFLGTIAGIFLLQAPYFLTEKLAGNIEAGIVSVALSTAFLLSYLPQILQSAIVPLYAYDYAKGDDKAIKELAENSTLLLSLFSSLLVFGLIFAKSFVEVLFNIKMGAELLLALIGVELYIAYNPLINLLTATKFVKKSAIFSLIGAMVSGIFWILLIPRLGAIGTLLGLTLGYAIIFALVLWESKRKFNINAKILKPTLLAIPLQLLSLKFPYTILIYLITEIKDIEKVMAFLRDIRS,failed
12,MDRLNQIQIILVETSLSANIGSAARAMKTMGLSNLRLVRPKNPLDEQATALAAGAKNILDNAQIFNTFDAAIADCQLIIGTSARLRHLQSTLVEPRECGKLIINNTNQHKIALIFGRERIGLTNEELLKCHYHLNVPTNPEYESLNLAMAVQLACYEIRMAWLELQKKPIIQPLTEEKNYPTAAAMAHFFDHTERLYKELGFIRNDAVMLKLRRLYQRAKLEENELNLLRGMLTAVEKHRIS,failed
13,MDRMDKAAKINIINANVRNAQTGDYYYNPYKIVNKTFTDTDGKQVTLKIGITGVLPTQILVWDKANLEGKVTVDDPMEAVKTIVPQMKAAGADFILVAAHSGIGDNEYTKNEENEGYQIAGIEGVDAVATGHSHADFPNGDGTSFYAKYPGVDDVNGLINGKPVVMAGKFGDHLGIMDVKLTYTDGKWKVVNSKAKLEKIDTKSDIADKALIDMAAHDHDGTILTMFVRKLVRPLPQSLAILLKFRTIHLFKS,failed
14,MDRNIDQELVSIIIPTHNRYESLIRAVKSCLHQSYKNIEVIIIDDNYSNVNLRNKIIHQFGYTNHRIKLILSNEDLGATNARNIGIKNSRGKYISFLDDDDEYMPDRILKLMACFKKSRMKNLALVCSYGIIIYPNGTREEEKTDFVGNPLFVQMVHNIAGTSFWLCKKEVLELINGFEKIDSHQDGVVLLKLLVQGYQIDIVREFLVNYYAHSKENGITGVTQKTINADEEYYNYCRKYFNLLSFNERILVTKKYYSLNIKRLLLIGDKCKALKVIKKAREEKIFNEFLF,failed
15,MDRNYSNWQSLTSLALFLLPFLFIGWLFDLFWPVTALALLGLVCWHYYYQQKLIKWLWQSRTLMPPSAPGSWSYIYDGIYRSQRRSQKRRKALARLLRRFREAAEALPDAAIVFRADGALLWSNKLAQFYFGLRWPDDAGQRLSNLIRHPEFYAYLNAGNFDEELTIPSPIRESLDIEIRIMPYSEDQFLLVARDVTQVKRLENLRREFVANVSHELKTPLTVLQGYLEMMDEPQQTPPAMLKKAVENMNAQSTRMANLVDQLLTLSRMETPSNDVFDHEVDMPALLEQLESEAKRLNEVKQHKIEFDVAPVRIYGKENLLRSAMQNLITNAINYTPDGGEIKVTWKTVAGGVEFSVKDNGKGIAAEHLPRLTERFYRVEDDRNSASGGTGLGLSIVKHAIEHHNSQLDINSSLEKGSRFSFRIPSGLLVS,failed
